The record followed here is paper doi:10.1101/2022.04.05.486672.

By Kd is commonly meant a measure of binding affinity in units of concentration. A low value points to tighter binding.

Test [1] addresses SIRK1-ECD-HA-StrepII (extracellular domain of SIRK1) (Arabidopsis). Put plainly: MST.
Test [2] concerns the target SIRK1-ECD together with co-receptor QSK1-ECD (about 20 nM each) (Arabidopsis). Briefly: MST.

On to VSGNVAARKGKQQTSSGKGGGTN [PEP7 (Elicitor Peptide 7), synthetic, untagged], for which the Kd in test [1] turned out to be 1440 nM; in test [2], 57 nM.
